Test results from publication PMC7810988, “Inositol pyrophosphates promote the interaction of SPX domains with the coiled-coil motif of PHR transcription factors to regulate plant phosphate homeostasis”.

Biological target: AtPHR1 MYB-CC (Arabidopsis thaliana, UniProt Q94CL7 222-358)
Test: GCI; 4 C, 300 mM NaCl; GCI at 4 C: AtPHR1 in 20 mM HEPES pH 7.5, 300 mM NaCl; OsPHR2 in 20 mM HEPES pH 7.9, 200 mM NaCl. EMSA: LI-COR Odyssey kit buffer without optional components, 50 nM oligo, 30 min at room temperature, 5% TBE gel in 0.5x TBE
Details: protein: recombinant; tags: His6 N-terminal, TEV-cleaved (untagged); chain copies: 2; label: 5'-biotin on strand 1; blunt

Sequence of AtPHR1 MYB-CC (Q94CL7 222-358): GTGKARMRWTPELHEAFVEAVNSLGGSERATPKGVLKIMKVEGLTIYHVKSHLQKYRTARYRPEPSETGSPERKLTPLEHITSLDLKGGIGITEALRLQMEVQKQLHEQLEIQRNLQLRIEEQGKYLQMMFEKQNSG

B1: pAtSPX1 biotin (dsDNA)
DNA 1: CAGAGAAAAAAGGATATTCTAATTAGAAACCTTAAGAATATTCTTTTTAATCCC
DNA 2: GGGATTAAAAAGAATATTCTTAAGGTTTCTAATTAGAATATCCTTTTTTCTCTG
Kd: ~200 nM
